Target: biotinylated PSD95 (PDZ domains 1-3, residues 1-435 of human PSD95, fused to a biotin acceptor peptide) (human, UniProt P78352 1-435, biotin at its internal biotin acceptor site)
Sequence (P78352 1-435): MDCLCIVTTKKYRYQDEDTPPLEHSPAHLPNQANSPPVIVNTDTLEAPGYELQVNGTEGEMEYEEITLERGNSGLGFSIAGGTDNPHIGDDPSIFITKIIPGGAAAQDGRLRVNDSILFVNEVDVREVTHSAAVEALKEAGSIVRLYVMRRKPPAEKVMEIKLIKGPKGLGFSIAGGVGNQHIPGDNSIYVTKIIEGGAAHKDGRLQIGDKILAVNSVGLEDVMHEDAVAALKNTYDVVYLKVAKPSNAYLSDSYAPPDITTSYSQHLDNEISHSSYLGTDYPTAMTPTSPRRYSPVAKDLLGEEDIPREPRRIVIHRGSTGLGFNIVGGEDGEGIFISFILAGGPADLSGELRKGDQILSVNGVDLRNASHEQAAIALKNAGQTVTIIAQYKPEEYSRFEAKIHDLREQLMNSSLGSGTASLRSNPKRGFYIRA

B1: Tat-nNOS (1-299) fusion protein (other)
chain: YGRKKRRQRRRMEDHMFGVQQIQPNVISVRLFKRKVGGLGFLVKERVSKPPVIISDLIRGGAAEQSGLIQAGDIILAVNGRPLVDLSYDSALEVLRGIASETHVVLILRGPEGFTTHLETTFTGDGTPKTIRVTQPLGPPTKAVDLSHQPPAGKEQPLAVDGASGPGNGPQHAYDDGQEAGSLPHANGLAPRPPGQDPAKKATRVSLQGRGENNELLKEIEPVLSLLTSGSRGVKGGAPAKAEMKDMGIQVDRDLDGKSHKPLPLGVENDRVFNDLWGKGNVPVVLNNPYSEKEQPPTSGKQSPTKNGSP
IC50: 300 nM
